According to the supplement of paper PMC11316812:
± gives the standard deviation of the averaged measurements.

Tests used:
hTERT-HMEC = assay: percentage of EdU-negative (G0-arrested) nuclei per well, 72 h; higher = more G0 arrest; conditions: reference: sequence is the full UniProt precursor, the tested protein was the secreted form or ectodomain
MCF7 = assay: as above; conditions: reference: sequence is the full UniProt precursor, the tested protein was the secreted form or ectodomain
[1] = protein concentration 0.03125 µM
[2] = protein concentration 0.3125 µM
[3] = protein concentration 0.0225 µM
[4] = protein concentration 0.03054 µM
[5] = protein concentration 0.3054 µM
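Also: secreted proteins added to cultured cells, EdU pulse at the end, nuclei found by Hoechst imaging, EdU status from nuclear versus surrounding ring intensity ratio, PBS as neutral control.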

Sequence	percentage of EdU-negative (hTERT-HMEC; [1]) [%]	percentage of EdU-negative (hTERT-HMEC; [2]) [%]	percentage of EdU-negative (MCF7; [1]) [%]	percentage of EdU-negative (MCF7; [2]) [%]	percentage of EdU-negative (hTERT-HMEC; [3]) [%]	percentage of EdU-negative (hTERT-HMEC; protein concentration 0.225 µM) [%]	percentage of EdU-negative (MCF7; [3]) [%]	percentage of EdU-negative (MCF7; protein concentration 0.225 µM) [%]	other results
MKALLALPLLLLLSTPPCAPQVSGIRGDALERFCLQQPLDCDDIYAQGYQSDGVYLIYPSGPSVPVPVFCDMTTEGGKWTVFQKRFNGSVSFFRGWNDYKLGFGRADGEYWLGLQNMHLLTLKQKYELRVDLEDFENNTAYAKYADFSISPNAVSAEEDGYTLFVAGFEDGGAGDSLSYHSGQKFSTFDRDQDLFVQNCAALSSGAFWFRSCHFANLNGFYLGGSHLSYANGINWAQWKGFYYSLKRTEMKIRRA	4.11 ± 0.33	4.91 ± 0.91	22.9 ± 0.61	26.2 ± 3.4	–	–	–	–	–
MKASSLAFSLLSAAFYLLWTPSTGLKTLNLGSCVIATNLQEIRNGFSEIRGSVQAKDGNIDIRILRRTESLQDTKPANRCCLLRHLLRLYLDRVFKNYQTPDHYTLRKISSLANSFLTIKKDLRLCHAHMTCHCGEEAMKKYSQILSHFEKLEPQAAVVKALGELDILLQWMEETE [Q9NYY1]	–	–	–	–	4.59 ± 0.14	8.36 ± 0.57	25.2 ± 0.85	27.2 ± 2.3	–
MKATIILLLLAQVSWAGPFQQRGLFDFMLEDEASGIGPEVPDDRDFEPSLGPVCPFRCQCHLRVVQCSDLGLDKVPKDLPPDTTLLDLQNNKITEIKDGDFKNLKNLHALILVNNKISKVSPGAFTPLVKLERLYLSKNQLKELPEKMPKTLQELRAHENEITKVRKVTFNGLNQMIVIELGTNPLKSSGIENGAFQGMKKLSYIRIADTNITSIPQGLPPSLTELHLDGNKISRVDAASLKGLNNLAKLGLSFNSISAVDNGSLANTPHLRELHLDNNKLTRVPGGLAEHKYIQVVYLHNNNISVVGSSDFCPPGHNTKKASYSGVSLFSNPVQYWEIQPSTFRCVYVRSAIQLGNYK	–	–	–	–	–	–	–	–	percentage of EdU-negative (hTERT-HMEC; [4]): 5.5 ± 0.71%; percentage of EdU-negative (hTERT-HMEC; [5]): 6.07 ± 0.48%; percentage of EdU-negative (MCF7; [4]): 24 ± 3.8%; percentage of EdU-negative (MCF7; [5]): 26.5 ± 1.1%
MKAWGTVVVTLATLMVVTVDAKIYERCELAARLERAGLNGYKGYGVGDWLCMAHYESGFDTAFVDHNPDGSSEYGIFQLNSAWWCDNGITPTKNLCHMDCHDLLNRHILDDIRCAKQIVSSQNGLSAWTSWRLHCSGHDLSEWLKGCDMHVKIDPKIHP [Q96QH8]	–	–	–	–	6.28 ± 1.5	7.91 ± 0.26	25.8 ± 1.2	25.03 ± 0.22	–
MKENVASATVFTLLLFLNTCLLNGQLPPGKPEIFKCRSPNKETFTCWWRPGTDGGLPTNYSLTYHREGETLMHECPDYITGGPNSCHFGKQYTSMWRTYIMMVNATNQMGSSFSDELYVDVTYIVQPDPPLELAVEVKQPEDRKPYLWIKWSPPTLIDLKTGWFTLLYEIRLKPEKAAEWEIHFAGQQTEFKILSLHPGQKYLVQVRCKPDHGYWSAWSPATFIQIPSDFTMNDTTVWISVAVLSAVICLIIVWAVALKGYSMVTCIFPPVPGPKIKGFDAHLLEKGKSEELLSALGCQDFPPTSDYEDLLVEYLEVDDSEDQHLMSVHSKEHPSQGMKPTYLDPDTDSGRGSCDSPSLLSEKCEEPQANPSTFYDPEVIEKPENPETTHTWDPQCISMEGKIPYFHAGGSKCSTWPLPQPSQHNPRSSYHNITDVCELAVGPAGAPATLLNEAGKDALKSSQTIKSREEGKATQQREVESFHSETDQDTPWLLPQEKTPFGSAKPLDYVEIHKVNKDGALSLLPKQRENSGKPKKPGTPENNKEYAKVSGVMDNNILVLVPDPHAKNVACFEESAKEAPPSLEQNQAEKALANFTATSSKCRLQLGGLDYLDPACFTHSFH	4.8 ± 0.32	5.37 ± 0.74	26.2 ± 3.5	26.4 ± 0.51	–	–	–	–	–
MKENYCLQAALVCLGMLCHSHAFAPERRGHLRPSFHGHHEKGKEGQVLQRSKRGWVWNQFFVIEEYTGPDPVLVGRLHSDIDSGDGNIKYILSGEGAGTIFVIDDKSGNIHATKTLDREERAQYTLMAQAVDRDTNRPLEPPSEFIVKVQDINDNPPEFLHETYHANVPERSNVGTSVIQVTASDADDPTYGNSAKLVYSILEGQPYFSVEAQTGIIRTALPNMDREAKEEYHVVIQAKDMGGHMGGLSGTTKVTITLTDVNDNPPKFPQSVYQMSVSEAAVPGEEVGRVKAKDPDIGENGLVTYNIVDGDGMESFEITTDYETQEGVIKLKKPVDFETKRAYSLKVEAANVHIDPKFISNGPFKDTVTVKISVEDADEPPMFLAPSYIHEVQENAAAGTVVGRVHAKDPDAANSPIRYSIDRHTDLDRFFTINPEDGFIKTTKPLDREETAWLNITVFAAEIHNRHQEAKVPVAIRVLDVNDNAPKFAAPYEGFICESDQTKPLSNQPIVTISADDKDDTANGPRFIFSLPPEIIHNPNFTVRDNRDNTAGVYARRGGFSRQKQDLYLLPIVISDGGIPPMSSTNTLTIKVCGCDVNGALLSCNAEAYILNAGLSTGALIAILACIVILLVIVVLFVTLRRQKKEPLIVFEEEDVRENIITYDDEGGGEEDTEAFDIATLQNPDGINGFIPRKDIKPEYQYMPRPGLRPAPNSVDVDDFINTRIQEADNDPTAPPYDSIQIYGYEGRGSVAGSLSSLESATTDSDLDYDYLQNWGPRFKKLADLYGSKDTFDDDS	–	–	–	–	5.18 ± 0.56	9.88 ± 1.5	25.4 ± 0.51	32.3 ± 2	–
